Publication PMC5372742, “Protection of the Queuosine Biosynthesis Enzyme QueF from Irreversible Oxidation by a Conserved Intramolecular Disulfide” (Biomolecules, 2017)

Substrate: N#Cc1c[nH]c2nc(N)[nH]c(=O)c12
Assay: steady-state kinetics, fluorescence assay of product NADP+
Assay type: biochemical, Bacillus subtilis
Settings: co-substrate NADPH

B1: B. subtilis QueF (Bacillus subtilis subsp. subtilis str. 168; E98Q) (protein)
chain: MTTRKESELEGVTLLGNQGTNYLFEYAPDVLESFPNKHVNRDYFVKFNCPEFTSLCPKTGQPDFATIYISYIPDEKMVESKSLKLYLFSFRNHGDFHQDCMNIIMNDLIELMDPRYIEVWGKFTPRGGISIDPYTNYGKPGTKYEKMAEYRMMNHDLYPETIDNR
notes: queF gene in pET-30Xa, expressed in E. coli BL21(DE3); ~160 amino acids, single T-fold domain, homodecamer; active sites at intersubunit interfaces
Km: 67 µM
kcat: 0.0006 s⁻¹
